The target of assay [1] is GluA2 (modified calcium-permeable rat GluA2flip subunit with Q586 at the Q/R-site, GluA2*) (rat). Nature of the assay: cryo-EM structure.
Assay [2] has the same target. Nature of the assay: cryo-EM structure. The source holds these as a separate data set.

Our source for the stoichiometry N and stoichiometry N (γ5 per GluA2 tetramer) values is publication PMC8642297.

For orientation: stoichiometry N means a count of units in the complex or per binding partner. On to “GluA2 (modified calcium-permeable rat GluA2flip subunit with Q586 at the Q/R-site, GluA2*) (receptor)”, for which the stoichiometry N in assay [1] was 4.

B1: type II TARP γ5 (C-terminally truncated mouse subunit, Cacng5, residues Ser2-Glu207) (domain or fragment)
chain: SACGRKALTLLSSVFAVCGLGLLGIAVSTDYWLYLEEGIILPQNQSTEVKMSLHSGLWRVCFLAGEERGRCFTIEYVMPMNSQMTSESTVNVLKMIRSATPFPLVSLFFMFIGFILSNIGHIRPHRTILAFVSGIFFILSGLSLVVGLVLYISSINDEMLNRTKDAETYFNYKYGWSFAFAAISFLLTESAGVMSVYLFMKRYTAE
Consider B1, for which the stoichiometry N (γ5 per GluA2 tetramer) in assay [2] turned out to be 2.
